Reference: US20030149244A1

Assays:
[1] = target: FcεRI-bound human IgE (IgE loaded on CHO 3D10 cells expressing the FcεRI alpha chain) (human) (UniProt P01854); experiment: FACS on IgE-loaded CHO 3D10 cells (FIG. 4); called nonspecific by the filing
[2] = target: FcεRI-bound human IgE (IgE loaded on CHO 3D10 cells expressing the FcεRI alpha chain) (human) (UniProt P01854); experiment: FACS on IgE-loaded CHO 3D10 cells (FIG. 4), arithmetic/linear scale

Chain of FcεRI-bound human IgE (IgE loaded on CHO 3D10 cells expressing the FcεRI alpha chain) (human) (P01854 whole entry, chain 1 of 2): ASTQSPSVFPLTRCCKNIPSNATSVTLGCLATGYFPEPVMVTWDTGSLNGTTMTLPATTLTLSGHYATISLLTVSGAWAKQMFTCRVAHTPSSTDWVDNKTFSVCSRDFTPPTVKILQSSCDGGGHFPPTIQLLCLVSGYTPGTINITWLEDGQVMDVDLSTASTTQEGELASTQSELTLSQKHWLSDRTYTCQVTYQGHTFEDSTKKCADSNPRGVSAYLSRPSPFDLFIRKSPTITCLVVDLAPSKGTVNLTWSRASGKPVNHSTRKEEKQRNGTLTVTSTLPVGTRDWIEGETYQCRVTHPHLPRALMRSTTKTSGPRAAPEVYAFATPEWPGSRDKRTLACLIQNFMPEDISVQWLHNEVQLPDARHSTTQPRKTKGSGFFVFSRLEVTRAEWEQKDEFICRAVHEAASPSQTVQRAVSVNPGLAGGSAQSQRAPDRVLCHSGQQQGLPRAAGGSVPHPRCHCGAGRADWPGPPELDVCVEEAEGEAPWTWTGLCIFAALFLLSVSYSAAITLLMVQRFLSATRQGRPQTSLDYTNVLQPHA
Chain of FcεRI-bound human IgE (IgE loaded on CHO 3D10 cells expressing the FcεRI alpha chain) (human) (P12319 26-257, chain 2 of 2, further chain): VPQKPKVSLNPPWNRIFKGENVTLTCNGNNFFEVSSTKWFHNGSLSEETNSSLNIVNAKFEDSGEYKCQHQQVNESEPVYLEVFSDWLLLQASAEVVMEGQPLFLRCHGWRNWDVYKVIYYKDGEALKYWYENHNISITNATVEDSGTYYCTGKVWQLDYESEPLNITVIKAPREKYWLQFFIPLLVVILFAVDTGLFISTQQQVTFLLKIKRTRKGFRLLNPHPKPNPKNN

In the case of MOPC21 (antibody), the nonspecific background binding (percent) [1] was 10% and the mean channel fluorescence at 0.1 µg/ml [2] was 7.3.
